Results published in publication PMC7511232 (eLife, 2020).

B1: MBP-Atg11(522-583) (domain or fragment, S. pombe, UniProt O14261 522-583, looked up)
chain: SSQPFYRVSPSIVPLNVIRKLTNRKTSFTDSHILRLQDEVNQLRNELDLVNKRNEDLLIELQ

Key:
HA-fused Atg1(593-830) = HA-fused Atg1(593-830) (S. pombe, UniProt Q9Y7T4 593-830); assay: pull-down
SEC = target: the molecule itself; assay: SEC

HA-fused Atg1(593-830), sequence (Q9Y7T4 593-830): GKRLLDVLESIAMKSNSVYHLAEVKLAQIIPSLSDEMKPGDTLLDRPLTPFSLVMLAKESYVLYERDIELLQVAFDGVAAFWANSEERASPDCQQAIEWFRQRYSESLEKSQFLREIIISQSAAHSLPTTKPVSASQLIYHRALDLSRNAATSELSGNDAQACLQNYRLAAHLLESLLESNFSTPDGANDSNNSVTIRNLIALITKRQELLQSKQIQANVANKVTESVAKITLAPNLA

Binder | binding result (HA-fused Atg1(593-830)) | stoichiometry N (SEC)
SSQPFYRVSPSIVPLNVIRKLTN (domain or fragment, S. pombe, UniProt O14261 522-544, looked up) [GST-fused Atg11(522-544)] | binds | 
B1 |  | 2
